This is an account of results in article PMC533864, “Selective inhibition of c-Myb DNA-binding by RNA polymers”.

The target in one data set is c-Myb R2R3 (Homo sapiens, UniProt P10242 89-192). Kind of data set: EMSA; 20 mM Tris-HCl pH 8.0, 0.1 mM EDTA, 10% glycerol, 0.1 mM DTT, 0.005% Triton X-100, 50 mM NaCl, RNAguard 6-20 U, 20 uL, 25 C, 15 min. As to conditions: protein: recombinant; label: 32P. (A gel shift assay detects complexes by their altered migration in electrophoresis.)
The next data set has as its target c-Myb NR1R2R3 (Homo sapiens, UniProt P10242 1-192). The data set is described as above. The note with it: protein: recombinant; label: 32P.

c-Myb R2R3, sequence (P10242 89-192): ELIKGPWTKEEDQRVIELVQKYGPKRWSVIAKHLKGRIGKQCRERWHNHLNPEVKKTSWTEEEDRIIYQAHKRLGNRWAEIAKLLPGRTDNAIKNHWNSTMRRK
c-Myb NR1R2R3, sequence (P10242 1-192): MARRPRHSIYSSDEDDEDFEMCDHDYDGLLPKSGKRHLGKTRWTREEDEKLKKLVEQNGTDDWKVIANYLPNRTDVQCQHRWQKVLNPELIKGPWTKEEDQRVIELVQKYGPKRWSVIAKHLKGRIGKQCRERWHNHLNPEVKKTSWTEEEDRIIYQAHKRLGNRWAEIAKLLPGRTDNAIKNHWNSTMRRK

B1: MRE probe (mim-1 promoter) (dsDNA)
DNA 1: GCATTATAACGGTTTTTTAGCGC
DNA 2: GCGCTAAAAAACCGTTATAATGC
Take B1: the binding result with c-Myb R2R3 and in the data set with c-Myb NR1R2R3 was “binds” throughout.
